Patent US20240002497A1 (Merck Sharp & Dohme, published 2024)
Changes are numbered by the printed parent chain. Names may count otherwise.

B1: F010301870 (VHH)
VHH: EVQLVESGGGVVQPGGSLRLSCATTSRAFIRDVFTGWYRRVPGKERELVARIYNGGNTNYADFAKGRFTISRDNAKKMVYLQMNSLRPEDTALYYCNFSGTINTGREYRSGDYWGQGTLVTVSS
notes: also called F0103464B09(L11V, S68T, T79Y, R81Q, S82aN, N82bS, K83R, G88A, V89L, L93N)
B2: F010302333 (VHH)
VHH: B1 VHH with T24A, T25S, A28Q, V41A, E45Q, G55E, F63S, M78T, N97L, N103S
B3: F010302341 (VHH)
VHH: EVQLVESGGGVVQPGGSLRLSCAASSRQFIRDVFTGWYRQAPGKQRELVARIYNEGNTNYADSAKGRFTISRDNAKKTVYLQMNSLRPEDTALYYCLFSGTISTGREYRSGDYWGQGTLVTVSS
B4: F010302357 (VHH)
VHH: B3 VHH with A64V
B5: F010302365 (VHH)
VHH: B3 VHH with Q28A, Q40R, E55G
notes: also called F0103464B09(L11V, T24A, T25S, V40A, E44Q, F62S, S68T, M77T, T79Y, R81Q, S82aN, N82bS, K83R, G88A, V89L, N99S)
B6: F010302366 (VHH)
VHH: B3 VHH with Q28A, E55G
notes: also called F0103464B09(L11V, T24A, T25S, R39Q, V40A, E44Q, F62S, S68T, M77T, T79Y, R81Q, S82aN, N82bS, K83R, G88A, V89L, N99S)
B7: F010302368 (VHH)
VHH: B3 VHH with Q28A, E55G, A64V
notes: also called F0103464B09(L11V, T24A, T25S, R39Q, V40A, E44Q, F62S, A63V, S68T, M77T, T79Y, R81Q, S82aN, N82bS, K83R, G88A, V89L,N99S)
B8: F010301867 (VHH)
VHH: EVQLVESGGGLVQPGGSLRLSCATTSRQFIRDVFTGWYRRVPGKERELVARIYNGGNTNYADFAKGRFSISRDNAKKMVTLRMSNLKPEDTGVYYCLFSGTINTGREYRSGDYWGQGTLVTVSS
notes: A28Q vs F0103464B09 (Kabat)
B9: F010301878 (VHH)
VHH: B8 VHH with Q28A, G55E
notes: G54E vs F0103464B09 (Kabat)
B10: F010301880 (VHH)
VHH: B8 VHH with Q28A, G55S
notes: G54S vs F0103464B09 (Kabat)
B11: F010301881 (VHH)
VHH: B8 VHH with Q28A, G55W
notes: G54W vs F0103464B09 (Kabat)
B12: F010301882 (VHH)
VHH: B8 VHH with Q28A, I30V
notes: I30V vs F0103464B09 (Kabat)
B13: F010301883 (VHH)
VHH: B8 VHH with Q28A, I52V
notes: I51V vs F0103464B09 (Kabat)
B14: F010301884 (VHH)
VHH: B8 VHH with Q28A, N54A
notes: N53A vs F0103464B09 (Kabat)
B15: F010301885 (VHH)
VHH: B8 VHH with Q28A, N54E
notes: N53E vs F0103464B09 (Kabat)
B16: F010301886 (VHH)
VHH: B8 VHH with Q28A, N59Q
notes: N58Q vs F0103464B09 (Kabat)
B17: F010301887 (VHH)
VHH: B8 VHH with Q28A, R31Q
notes: R31Q vs F0103464B09 (Kabat)
B18: F010301888 (VHH)
VHH: B8 VHH with S26H, Q28A
notes: S26H vs F0103464B09 (Kabat)
B19: F010301889 (VHH)
VHH: B8 VHH with Q28A, S99A
notes: S95A vs F0103464B09 (Kabat)
B20: F010301890 (VHH)
VHH: B8 VHH with Q28A, T35V
notes: T35V vs F0103464B09 (Kabat)
B21: F010301891 (VHH)
VHH: B8 VHH with Q28A, T58V
notes: T57V vs F0103464B09 (Kabat)
B22: F010301892 (VHH)
VHH: B8 VHH with Q28A, V33L
notes: V33L vs F0103464B09 (Kabat); also called F0103464B09(V33L)
B23: F010302345 (VHH)
VHH: B3 VHH with S26H, N54E, E55G, N59Q
B24: F010302333 (VHH)
VHH: B3 VHH with Q40R
B25: F010302334 (VHH)
VHH: B3 VHH with Q40R, N59Q
B26: F010302335 (VHH)
VHH: B3 VHH with Q40R, N54E, E55S, N59Q
B27: F010302336 (VHH)
VHH: B3 VHH with S26H, Q40R, N59Q
B28: F010302337 (VHH)
VHH: B3 VHH with S26H, Q40R, N54E, E55G, N59Q
B29: F010302338 (VHH)
VHH: B3 VHH with S26H, Q28A, Q40R, N54E, E55S, N59Q
B30: F010302339 (VHH)
VHH: B3 VHH with S26H, Q28A, Q40R, N54E, E55G, N59Q
B31: F010302340 (VHH)
VHH: B3 VHH with S26H, Q28A, V33L, Q40R, N54E, E55S
B32: F010302341 (VHH)
VHH: B3 VHH
B33: F010302342 (VHH)
VHH: B3 VHH with N59Q

Biological target: T1, huNav1.7α + β1-β2-β3 (human, UniProt Q15858 1-1988; A5A6L6 19-218; O60939 30-215; Q2KI11 23-215)
T1 construct: also called huNav1.7-beta1-beta2-beta3; huNav1.7-β1-β2-β3
Test: binding FACS, CHO FlpIn
Experimental: (§1) Binding of the ISVDs to cell-expressed Nav1.7α was detected via murine anti-Flag (Sigma, catalog #F1804). Briefly, cells were resuspended in FACS buffer (PBS, 10% FBS, NaN₃) and transferred to a 96-well V-bottom plate at 1×10^5 cells/well. Purified FLAG3-tagged ISVD was diluted in FACS buffer and added to the cells for 30 minutes at 4° C. […] Prior to the read-out, the samples were resuspended in 1 μg/mL propidium iodide (Sigma, catalog #P4170) to exclude dead cells. Between each step, the cells were centrifuged for 5 minutes at 200 grams and washed with 100 μL/well FACS buffer.

| Binder | Bmax [%] | EC50 [nM] |
| --- | --- | --- |
| B1 | 100 | 10 |
| B2 | 100 | 4.1 |
| B3 | 100 | 5.3 |
| B4 | 100 | 5.3 |
| B5 | 100 | 3.1 |
| B6 | 100 | 3.7 |
| B7 | 100 | 3.9 |

Biological target: T2, huNav1.7α + β1-β2-β3 (human, UniProt Q15858 1-1988; A5A6L6 19-218; O60939 30-215; Q2KI11 23-215)
T2 construct: Cell line (CHO FlpIn, HEK FlpIn, transient HEK293T) is named under assay; also called huNav1.7-beta1-beta2-beta3; human Nav1.7α with Navβ1, Navβ2 and Navβ3
Test: binding FACS, CHO FlpIn cells
Experimental: as §1

| Binder | EC50 [nM] | Bmax [%] |
| --- | --- | --- |
| B8 | 4.8 | – |
| B9 | 7.1 | – |
| B10 | 4.9 | – |
| B11 | 4.2 | – |
| B12 | 4.5 | – |
| B13 | 4.8 | – |
| B14 | 6 | – |
| B15 | 8 | – |
| B16 | 4.3 | – |
| B17 | 7.5 | – |
| B18 | 5.3 | – |
| B19 | 5.4 | – |
| B20 | 5 | – |
| B21 | 4.7 | – |
| B22 | 4 | – |
| B23 | 4.9 | 100 |
| B24 | 4.1 | 100 |
| B25 | 4 | 100 |
| B26 | 4.1 | 100 |
| B27 | 3.6 | 100 |
| B28 | 3.9 | 100 |
| B29 | 3.4 | 100 |
| B30 | 4.3 | 100 |
| B31 | 4.6 | 100 |
| B32 | 5.3 | 100 |
| B33 | 4 | 100 |

Biological target: T3, rhNav1.7α + β1-β2-β3 (rhesus monkey)
T3 construct: also called rhNav1.7-beta1-beta2-beta3; rhesus Nav1.7α
Test: binding FACS, CHO FlpIn cells
Experimental: as §1

| Binder | Bmax [%] | EC50 [nM] | binding result |
| --- | --- | --- | --- |
| B8 | 74 | 22 | – |
| B9 | 83 | 27 | – |
| B10 | 73 | 24 | – |
| B11 | 99 | 5.8 | – |
| B12 | 43 | 41 | – |
| B13 | 48 | 34 | – |
| B14 | 47 | 50 | – |
| B15 | 100 | 18 | – |
| B16 | 81 | 15 | – |
| B17 | 51 | 59 | – |
| B18 | 95 | 8.7 | – |
| B19 | 92 | 8.5 | – |
| B20 | 58 | 20 | – |
| B21 | 45 | 26 | – |
| B22 | 100 | 9.1 | – |
| B23 | 96 | 12 | – |
| B24 | – | – | no binding |
| B25 | 70 | 11 | – |
| B26 | 84 | 13 | – |
| B27 | 79 | 9.7 | – |
| B28 | 100 | 6.8 | – |
| B29 | 100 | 7.9 | – |
| B30 | 100 | 6.8 | – |
| B31 | 96 | 13 | – |
| B32 | – | – | no binding |
| B33 | 61 | 16 | – |
